From patent US20210253725A1 (BIONTECH, published 2021)

B1: P018.S.10.A.E04 (antibody, V domains shown)
VH: QSLEESGGDLVKPGASLTLTCTASGFSFSSSYWICWVRQAPGKGLEWVACISAPGSGSTFDASWAKGRFTISKTSSTTVTLQMTSLTAADTATYFCARFYAGGSGDYFDLWGPGTLVTVSS
VL: QIVMTQTPSSTSEPVGGTVSIKCQASQNIGSYLAWYQQKPGQPPKVLIYTTSDLASGVPSRFKGSGSGTQFTLTISDLESDDAATYYCLGVYGYSSDDVAFGGGTEVVVK
notes: V regions on human Ig constant parts; also called AB27_177
B2: P018.S.03.A.H02 (antibody, V domains shown)
VH: QSLEESGGRLMTPGGSLTLTCTVSGFSLSDYNMQWVRQAPGEGLEWIGIISLGGTTDYANWVKGRFTISKTSTTVDLKMTSLTASDTATYFCARDPAGGNWAELDLWGQGTLVTVSS
VL: DIVMTQTPASVSEPVGGTVTIKCQASQSISSWLSWFQQKPGQPPKLLIYDASTLASGVPSRFKGSGSGTEFTLTISDLESADAATYYCQQGSTISNVDNAFGGGTEVVVK
notes: V regions on human Ig constant parts; also called AB27_60
B3: P018.S.03.A.F03 (antibody, V domains shown)
VH: QSLEESGGRLVTPGGSLTLTCTVSGIDLSSYAMGWVRQAPGKGLEYLGIIYTSNRTHYATWAKGRFTISKTSSTTVDLKATSLTTEDTATYFCGRYGRGSGGYYYGMDLWGPGTLVTVSS
VL: DIVMTQTPASVEAAVGGTVTIKCQASQSGDDYCSWYQQKPGQRPKLLIYAASTLASGVPSRFRGSRSGTEYTLTISDLESADAATYYCQNYCAGSGVCLGVAFGGGTEVVVK
notes: V regions on human Ig constant parts; also called AB27_54
B4: P018.S.01.A.A05 (antibody, V domains shown)
VH: QEQLEESGGDRVQPEGSLTLTCTASGFSFSATYWICWVRQAPGKGLEWIACIFGRSSSDTYYASWAKGRFTISKTSSTTVTLQMTSLTAADTATYFCARGDSGHPYYYSFNLWGPGTLVTVSS
VL: AYDMTQTPASVEVAVGGTVTIKCQASQSIGGYLAWYQQKPGQPPKLLIYGASTLASGVPSRFRGSGSGTEFTLTISDLDSADAATYYCQCTHGTRSDWAFGGGTEVVVK
notes: V regions on human Ig constant parts; also called AB27_2
B5: P018.S.06.A.C03 (antibody, V domains shown)
VH: QSLEESGGGLFQPGGSLTLTCKASGLDFSTNYYMCWVRQAPGKGLELIACISTSSGNTWYASWAKGRFTISKTSSTTVTLQMTSLTAADTATYFCARCDIVYVGYGYASRLDLWGQGTLVTVSS
VL: AQVLTQTPSPVSAAVGGTVTINCQASESVYNNNNLAWYQQKPGQPPKFLIYGASSLASGVPSRFKGSGSGTQFTLTISDLESDDAATYYCAGGGSTSVGAFGGGTEVVVK
notes: V regions on human Ig constant parts; also called AB27_101
B6: P018.S.03.A.H03 (antibody, V domains shown)
VH: QSLEESGGDLVKPEGSLTLTCTASGLDFSSSYWICWVRQAPGKGLEWIACIHAGSSGTTHYATWAKGRFTISKTSSTTVTLQMTSLTAADTATYFCARGAVYGGGSYDNFNLWGPGTLVTVSS
VL: AYDMTQTPASVEVAVGGTVTIKCQASQSIGTYLSWYQQKPGQPPKLLIYAASTLASGVQPRFKGSGSGTQFTLTISGVQSDDAATYYCQQGYSADNVANSFGGGTEVVVK
notes: V regions on human Ig constant parts; also called AB27_61

target: T1, CD27 expressed on the cell surface (HT1080_CD27 cells) (human, UniProt P26842 20-260); experiment: cell-based or functional assay
T1 sequence (looked up): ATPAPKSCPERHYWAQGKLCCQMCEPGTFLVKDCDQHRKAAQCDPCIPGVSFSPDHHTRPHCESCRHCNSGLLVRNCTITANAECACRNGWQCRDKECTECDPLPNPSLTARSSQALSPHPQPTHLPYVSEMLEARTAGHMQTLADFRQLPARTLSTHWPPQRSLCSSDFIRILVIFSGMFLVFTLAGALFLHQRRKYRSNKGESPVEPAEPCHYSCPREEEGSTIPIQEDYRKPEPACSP
Further: test concentration or dose not given here.

Row | Binder | IL-8, cross-linked by F(ab')2 fragment [abs. corr.] | IL-8 [abs. corr.]
1 | B1 | 2.29 | 0.339
2 | B2 | 1.07 | 0.13
3 | B3 | 1.35 | 0.106
4 | B4 | 1.09 | 0.328
5 | B5 | 1.13 | 0.272
6 | B6 | 1.09 | 0.588

target: T2, CD27 protein (His-tagged, Sino Biological Inc. 10039-H08B1) (human, UniProt P26842 20-192); experiment: ELISA on coated His-tagged CD27
T2 construct: bought; coated onto ELISA plates; also called human CD27; recombinant protein; not shown: His tag
T2 sequence (looked up): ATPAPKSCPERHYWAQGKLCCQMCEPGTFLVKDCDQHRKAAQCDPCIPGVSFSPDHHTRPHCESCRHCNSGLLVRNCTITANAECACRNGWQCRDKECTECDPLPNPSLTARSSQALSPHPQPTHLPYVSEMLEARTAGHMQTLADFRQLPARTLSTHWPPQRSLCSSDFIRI

Row | Binder | ELISA [abs. corr.]
7 | B1 | 3.15
8 | B2 | 3.15
9 | B3 | 3.15
10 | B4 | 3.15
11 | B5 | 3.14
12 | B6 | 3.15

target: T1, CD27 expressed on the cell surface …; experiment: cellular binding assay, HT1080_CD27 cells

Row | Binder | Cellular binding assay [RFU]
13 | B1 | 280
14 | B2 | 395
15 | B3 | 223
16 | B4 | 300
17 | B5 | 269
18 | B6 | 289
